The text below walks through data of IntAct's records for PubMed 25888478.

The chains are these.
B1: Protein interacting with Hsp90 1 (Saccharomyces cerevisiae), P38768 (parent)
chain: MADFLLRPIKQRHRNEDKYVSVDAADGSVSKIEPIADFVIKTKLLSANGPEKLQDGRKVFINVCHSPLVPKPEVDFNARIVFPLIIQNEWEIPIITSCYRMDHDKKGQECYVWDCCINSDCSRWICDDIQLREILVEWCLESCEIRDSVVLCRDRIAFPKMKKKGAELPALEVLNDELHQDYKAKMHKIIEEEAGDPMSILRGRNDDGDDNNDPDDGTLPPLFPIENKISGAKIEEIDKNEIAHRNLKQAPAPAPAPHEQQEDVPEYEVKMKRFKGAAYKLRILIENKAPNSKPDRFSPSYNFAENILYINGKLSIPLPRDIVVNAADIKIFHIRKERTLYIYI
partner: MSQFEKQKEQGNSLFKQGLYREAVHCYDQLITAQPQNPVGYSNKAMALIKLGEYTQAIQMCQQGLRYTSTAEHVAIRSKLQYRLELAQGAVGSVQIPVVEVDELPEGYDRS

In the experiment the parent is B1. Conditions: with tah1_yeast TAH1, P25638.
MADFLLRPIKQRHRNEDKYVSVDAADGSVSKIEPIADFVIKTKLLSANGPEKLQDGRKVFINVCHSPLVPKPEVDFNARIVFPLIIQNEWEIPIITSCYRMDHDKKGQECYVWDCCINSDCSRWICDDIQLREILVEWCLESCEIRDSVVLCRDRIAFPKMKKKGAELPALEVLNDELHQDYKAKMHKIIEEEAGDPMSILRGRNDDGDDNNDPDDGTLPPLFPIENKISGAKIEEIDKNEIAHRNLKQAPAPAPAPHEQQEDVPEYEVKMKRFKGAAYKLRILIENKAPNSKPDRFSPSYNFAESILYINGKLSIPLPRDIVVNAADIKIFHIRKERTLYIYI [N306S]: the “effect of a mutation on the interaction” value is reported as “disrupting interaction”.
